Patent US12357582B2, “Hydrophobic ion pairing and flash nanoprecipitation for formation of controlled-release nanocarrier formulations” (The Trustees of Princeton University, priority 2017, dated 2025)

Experiments:
[1] = Particle size and polydispersity by dynamic light scattering; format: physicochemical; conditions: LL37 pre-ion paired with SDS 1:1 charge ratio, PCL5k-b-PEG5k NPs
[2] = Encapsulation efficiency (ultrafiltration, BCA assay); format: physicochemical; conditions: LL37:SDS 1:1 PCL5k-b-PEG5k NPs

Substance: LL37: cationic antibiotic peptide, 1719 Da, sequence FKRIVQRIKDFLR (nanoparticle formulation; LL37) [reference compound]
- NP diameter [1]: ~120 nm
- Encapsulation efficiency [2]: over 95%
